The target of the experiment is Elk-1 ETS domain (Elk-ets), recombinant. In words: SEC. (SEC sorts molecules by how far they enter the pores of the column.)

The stoichiometry N is the number of molecules, sites or subunits per partner or assembly.

As for “Elk-1 ETS domain (Elk-ets), recombinant (domain or fragment)”, the stoichiometry N was 2.

The values above are taken from publication PMC3159454.
